{"source": "paper PMC7059798", "about": "“Phosphoglucomutase Is Not the Target for Galactose Toxicity in Plants” (Frontiers in Plant Science, 2020)", "proteins": {"B1": {"name": "PGM3 (Arabidopsis thaliana) (protein)", "chain": "MVFKVSTVSTSPIDGQKPGTSGLRKKVKVFKQPNYLENFVQATFNALTAEKVKGATLVVSGDGRYYSKDAVQIIIKMAAANGVRRVWVGKNTLLSTPAVSAVIRERSGADGSKATGAFILTASHNPGGPTEDFGIKYNMENGGPAPESITDKIYENTKTIKEYPIAQDLPNVDISAVGVTSFEGPEGKFDVEVFDPADDYVKLMKSIFDFEAIRKLLSSPKFTFCYDALHGVAGAYAHRIFVEELGAQESALLNCTPKEDFGGGHPDPNLTYAKELVARMGLGKSDTGGEPPEFGAAADGDADRNMILGKRFFVTPSDSVAIIAANAIGAIPYFSSGLKGVARSMPTSAALDVVAKSLNLKFFEVPTGWKFFGNLMDAGMCSVCGEESFGTGSDHIREKDGIWAVLAWMSILAHKNKGNIDGNAKLVSVEDIVRQHWATYGRHYYTRYDYENVDAGKAKELMEHLVKLQSSIPEVNKIVKGIRSDVASVASADEFEYKDPVDGSISKHQGIRYLFEDGSRLVFRLSGTGSEGATIRLYIEQYEKDASKTGRESQEALSPLVDLALKLSKMEEFTGRSAPTVIT", "notes": "forward primer encodes (tag)HHHHHG-MVFKVSTVS"}}, "key": {"[1]": {"substrate": "O=P(O)(O)OC[C@H]1O[C@H](OP(=O)(O)O)[C@H](O)[C@@H](O)[C@@H]1O", "test": "purified protein", "format": "biochemical, Arabidopsis thaliana", "conditions": "50 mM TEAB pH 7.0, 2 mM MgCl2, Glc-1P as substrate, 25°C, catalytic intermediate, Figure 3 legend prints 4.3, varied: cofactor"}, "[2]": {"substrate": "O=P(O)(O)O[C@H]1O[C@H](CO)[C@@H](O)[C@H](O)[C@H]1O", "test": "purified protein", "format": "biochemical, Arabidopsis thaliana", "conditions": "50 mM TEAB pH 7.0, 2 mM MgCl2, 10 µM Glc-1,6bP, 25°C"}}, "data": [{"protein": "B1", "values": [{"measurement": "Km", "setting": "[1]", "value": 4.38, "unit": "µmol/L"}, {"measurement": "Km", "setting": "[2]", "value": 90, "unit": "µmol/L"}]}]}
